Assay results published in publication PMC9884874 (Journal for Immunotherapy of Cancer, 2023).

Assays:
[1] = test system: tumor; settings: single agent or in combination with anti-PD-1 ab, mouse models; cited from earlier work
[2] = test system: mouse bone-marrow-derived macrophages (BMDM); assay: uptake of pHrodo-labeled apoptotic thymocytes by BMDM; assay type: cell-based; settings: pHrodo-labeled apoptotic thymocytes as target cells
[3] = test system: Ccn1; assay: Ccn1 mRNA level in cells; assay type: cell-based, mouse
[4] = test system: CD8+ T cells; assay: CD8+ T cells co-cultured with MC38 CCM-educated MQ or DC; assay type: cell-based, mouse
[5] = test system: BMDM; assay: recombinant CCN1 treatment of BMDM, CD206+ frequency; assay type: cell-based, mouse
[6] = test system: mouse peritoneal MQ; settings: 100 µg/mL CCN1, direct exposure; cited from earlier work

Molecule: CCOc1ccn(-c2ccc(F)cc2)c(=O)c1C(=O)Nc1ccc(Oc2ccnc(N)c2Cl)c(F)c1 [BMS-777607]
- tumor-growth-inhibitory effects [1]: excellent tumor-growth-inhibitory effects

Molecule: COc1cc2nccc(Oc3ccc(NC(=O)c4cn(C(C)C)c(=O)n(-c5ccc(F)cc5)c4=O)cc3F)c2cc1OC [RXDX-106]
- tumor-growth-inhibitory effects [1]: excellent tumor-growth-inhibitory effects

Molecule: CCCCNc1ncc(-c2ccc(CN3CCOCC3)cn2)c(NC2CCC(O)CC2)n1 (stereo not drawn) [UNC2250]
- ability of phagocytosis in BMDM [2]: significantly decreased
- mRNA level of Ccn1 in BMDM primed with MC38 culture media [3]: could not decrease

B1: CCN1: recombinant CCN1, a secreted matricellular protein, added to macrophages (protein, UniProt O00622 25-381, looked up)
CCN family member 1: TCPAACHCPLEAPKCAPGVGLVRDGCGCCKVCAKQLNEDCSKTQPCDHTKGLECNFGASSTALKGICRAQSEGRPCEYNSRIYQNGESFQPNCKHQCTCIDGAVGCIPLCPQELSLPNLGCPNPRLVKVTGQCCEEWVCDEDSIKDPMEDQDGLLGKELGFDASEVELTRNNELIAVGKGSSLKRLPVFGMEPRILYNPLQGQKCIVQTTSWSQCSKTCGTGISTRVTNDNPECRLVKETRICEVRPCGQPVYSSLKKGKKCSKTKKSPEPVRFTYAGCLSVKKYRPKYCGSCVDGRCCTPQLTRTVKMRFRCEDGETFSKNVMMIQSCKCNYNCPHANEAAFPFYRLFNDIHKFRD
- effect of CCN1 addition on KRCT87-mediated immune-boosting effects ([4]; CCN1 addition to DC): could not nullify
- effect of CCN1 addition on KRCT87-elevated granzyme B, IFN-γ, TNF-α production ([4]; MQ educated by MC38-CCM): completely reversed
- frequency of M2-skewed MQ ([5]; 10–500 ng/mL CCN1): increases
- frequency of CD206+ BMDM ([5]; recombinant CCN1, concentration-dependent and in presence of MC38 CCM): increased
- differentiation into M1-skewing MQ producing pro-inflammatory cytokines [6]: promotes differentiation into M1-skewing MQ
